Data as given in the supplement of paper PMC9170038.

System: MS2 coat protein
Experiment: apparent KD of MS2 coat protein; designed switch direction (-1 OFF switch, 1 ON switch): -1; higher = weaker reporter binding
Method in brief: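 Designed RNA switches sharing common flanks were transcribed on Illumina chips by stalled E. coli RNA polymerase. They were titrated with SNAP-549-labelled MS2 coat protein, from 0.7 or 1.5 nM doubling to 3 µM, in Tris-HCl pH 7.5 buffer with KCl, MgCl2, BSA, DTT, tRNA and Tween-20. Titrations ran without input, with 200 uM small-molecule ligand, or with an oligonucleotide input. The apparent KD of each design is the median over its clusters, after curve-fitting of normalised cluster fluorescence.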

[1] = input ligand: microRNA oligo, concentration not stated
[2] = Eterna round: R95, input ligand: microRNA oligo, concentration not stated
[3] = Eterna round: R95, input ligand: FMN 200 uM
[4] = Eterna round: R95, input ligand: none

Sequence	apparent KD of MS2 coat protein [1] [nM]	apparent KD of MS2 coat protein [2] [nM]	apparent KD of MS2 coat protein (input ligand: FMN 200 uM) [nM]	apparent KD of MS2 coat protein (input ligand: none) [nM]	also measured
UCACGGCUCGGAGGAUAUGACACAUGAGGAUCACCCAUGUGUGUAAGCCAAUAAACCUACAAAUGUCAGAAGGCCGCGCCUCAU [Eternabot solution 9] (Eterna round: R96, puzzle: Exclusion NG 2)	10.8				
GGUGCGUAUGUGAGGAUAUGCUGGUCCUUGGAUCAGCAGAAGGCACAUGAGGAUCACCCAUGUGGUGUCGUCCC [salish99_Bmod_Ex4_021] (puzzle: Brourd's mod of Exclusion 4)		241			
GAGUGGUGAGGAUAUACAUGAGGAUCACCCAUGUGCUUCAGCUAGGAGACUAGCAUUGGUAGAAGGCAUUACUC [Mod of lroppy 8 - Jieux - Exclusion 3] (Eterna round: R97, puzzle: Exclusion 3)			102	33.6	
AGCGCCAUCGUGAGAUGGCGUAUUACAUGAGGAUCACCCAUGUAGGAUAUCGAUUGCUUUGCAGUCGAGAAGGACAUGUUCUUG [JL ENG3 3.80 Mod B] (Eterna round: R96, puzzle: Exclusion NG 3)	39.4				
GCAUGCGACUGAGGAUAUGUAGUGACCUCAGUCGAGACAUGAGGAUCACCCAUGUACAGCACGUGACAGAAGGCAGCACAUGAU [Eternabot solution 14] (Eterna round: R96, puzzle: Exclusion NG 2)	38.5		63.2	53.7	
GUCACAUGGACAUAGGAUCACAUGAGGAUCACCCAUGUGACUAACAAGCUUUUUGUUCGUCUUAUGUCCAUGUGAAA [Stov1/15-B2] (Eterna round: R97, puzzle: Sensor, turn-off variant 1)			15.3	11.2	
CCUCAACAGUAGGAUAUCAUAUAACUAUUGUGAUGAGAAGGACUGACAUGAGGAUCACCCAUGUUAACGUGAUA [Exclusion 6 - 5:b] (puzzle: Exclusion 6)		17.3			
GGUCGAGAACAGCUCCGCGCCGCCCUCGACCGCUCAUUUACAUGAGGAUCACCCAUGUUUUUUGCUUGUCUUGUUUC [Ceerar] (puzzle: Sensor v3, turn-off variant 2)		98.4			apparent KD of MS2 coat protein [3]: 20.6 nM; apparent KD of MS2 coat protein [4]: 23.4 nM
GGAAAGCAAGGAUAUACAAGGAAACGAUGGAAAGUAGAGAGACAUGAGGAUCACCCAUGUAGAAGGUGCGAGAG [JR_Exclu2_Sub037] (puzzle: Exclusion 2)		24.9			apparent KD of MS2 coat protein [3]: 36.9 nM; apparent KD of MS2 coat protein [4]: 25.3 nM
UGGACAUGAGGAUCACCCAUGUAAUACACACCUCAGCCACGAGAGGAUAUGCCCGGAGGACCGGCGCAGAAGGCUCCCAAGAGA [Eternabot solution 10] (Eterna round: R96, puzzle: Exclusion NG 3)	29.5		83.8	48.1	
CCAGCGUGUGUGAGGAUAUGCUGGUCCUUGGAUCAGCAGAAGGCACAUGAGGAUCACCCAUGUGAGAGCGUUGG [JL bmx4 3.36] (puzzle: Brourd's mod of Exclusion 4)		20.7			
GCUCUUGGGCAAGGAUAUCCUGCGCGGUUCCGGUUCGUGUCUGUCACAUGAGGAUCACCCAUGUGGGAGAAGGUGCCUGCGGUG [Design 74] (Eterna round: R96, puzzle: Exclusion NG 2)	12.3		28.6	15.9	
AGCCUGUAAUCCCUCAGACAUGAGGAUCACCCAUGUGGAUGUAAGGAUAUAGGUGCAAUUGCAAUCUAGAAGGUACGCCGUCAG [Eternabot solution 32] (Eterna round: R96, puzzle: Exclusion NG 3)	23.1		44.8	31.4	
CGUCCUGAAGUGAGGAUAUUGUCUCGGAUACGAAACAAGAAGGCACAUGAGGAUCACCCAUGUAAACAGGACGA [Malc #30 mod 11] (puzzle: Brourd's mod of Exclusion 4)		15.6			apparent KD of MS2 coat protein [3]: 15.3 nM; apparent KD of MS2 coat protein [4]: 16.9 nM
AAGGUACAUGAGGAUCACCCAUGUGAGGAUAUCGUUGUUGAGUCUAGAGAUACAAUGUUGAGAAGGUACGGGUA [Eternabot (L2) Solution 94] (Eterna round: R97, puzzle: Exclusion 1)			63.1	61.2	
GCAAGCUUUUGCUCGGCUUACAUGAGGAUCACCCAUGUGGGCCCGGGCCCGGGCCCGCCGGGCCCGGGCCCGGGCCC [-58.5, -80.7, A 10%] (Eterna round: R97, puzzle: Sensor, turn-off variant 1)			24.4	25.4	
UGAGUGCUGCGAGGAUAUACAUGAGGAUCACCCAUGUUUUCCUGUGAGGCUUUGCCUCACAGGAUGUAGAAGGCGCAGUACUCU [JL ENG2 1.14] (Eterna round: R96, puzzle: Exclusion NG 2)	7.33		9.13	12.1	
UAUUAGCAAGCGAGAUCCCACAUGAGGAUCACCCAUGUGCUCGUCUUAAGCCCAGAAUUACUGGGCGCUCGUCUUAU [Winner reversed engineered 20] (Eterna round: R97, puzzle: Sensor, turn-off variant 1)			13.1	12.7	
CCUCAACAUGAGGAUCACCCAUGUAAGGAUAUGUUGCAGAGCCUCGAGGUACCCGUCAACAGAAGGUAUAUAGA [Eternabot (L1) Solution 16] (Eterna round: R97, puzzle: Exclusion 1)			45.1	30.7	
CUGAUGUUAGGAUAUCAGGCGCCCGCCACUGGCAGGGCGCAUGAGAAGGGACAUGAGGAUCACCCAUGUAGUAA [Anorbeus] (puzzle: Exclusion 4)		26.3			
GCUUGUCUUUAGGAUAUCGUGAGGCCCUUCAUACGAGAAGGAAAGACAUGAGGAUCACCCAUGUCGGGUAUCAC [Eternabot (L1) Solution 28] (Eterna round: R97, puzzle: Exclusion 6)			51.8	20.8	
AUUAAAACAUAGGAUAUCGAAUUUAUUAUUUAACGAGAAGGAUGAACAUGAGGAUCACCCAUGUGGUAUCAUGG [Mat - Exclusion 6 - JL Mod - D26] (puzzle: Exclusion 6)		202			
AAUAUUAGAGGAUAUGCACUUGCACUAACGAAAUCCUCACCACAUGAGGAUCACCCAUGUAGAAGGCUGGUGGU [Eternabot (L2) Solution 65] (Eterna round: R97, puzzle: Exclusion 2)			354	487	
ACCUUACAUGAGGAUCACCCAUGUCAGGAUAUCUCGGGCGGCUGGAGACCAGCCGCCCAGAGAAGGGACGAGGA [Engeisbe] (puzzle: Exclusion 1)		12.2			
GCGGACUAGAUCGUGAGAUCUGAGACAUGAGGAUCACCCAUGUAGGAUAUCGAUUCGAAACGAAUCGAGAAGGGCAUAGUCCGC [JL denovo 8] (Eterna round: R96, puzzle: Exclusion NG 3)	16		23.1	22	
GAAAGCUUUGAGCUCGAUCACAUGAGGAUCACCCAUGUGGGAGCCAGGCGACGGCAUUCUGCGAGGGCGACUUUUGG [Eternabot (L2) Solution 42] (Eterna round: R97, puzzle: Sensor, turn-off variant 1)			17.8	15.4	
